{"source": "patent US20240262878A1", "about": "“PHOTOACTIVATABLE GASDERMIN PROTEINS” (THE BOARD OF TRUSTEES OF THE UNIVERSITY OF ILLINOIS, priority 2021, published 2024)", "molecules": {"B1": {"name": "PhoDer: optogenetically activatable human GSDMD with photocleavable linker between N- and C-terminal domains, SEQ ID NO: 33 (protein)", "chain": "MGSAFERVVRRVVQELDHGGEFIPVTSLQSSTGFQPYCLVVRKPSSSWFWKPRYKCVNLSIKDILEPDAAEPDVQRGRSFHFYDAMDGQIQGSVELAAPGQAKIAGGAAVSDSSSTSMNVYSLSVDPNTWQTLLHERHLRQPEHKVLQQLRSRGDNVYVVTEVLQTQKEVEVTRTHKREGSGRFSLPGATCLQGEGQGHLSQKKTVTIPSGSTLAFRVAQLVIDSDLDVLLFPDKKQRTFQPPATGHKRSTSEGAWPQLPSGLSMMRCLHNGGGSVIPDYFKQSFPEGYSWERSMTYEDGGICIATNDITMEGDSFINKIHFKGTNFPPNGPVMQKRTVGWEASTEKMYERDGVLKGDVKMKLLLKGGGHYRCDYRTTYKVKQKPVKLPDYHFVDHRIEILSHDKDYNKVKLYEHAVARNSTDSMDELYKGGSGGMVSKGEETITSVIKPDMKNKLRMEGNVNGHAFVIEGEGSGKPFEGIQTIDLEVKEGAPLPFAYDILTTAFHYGNRVFTKYPRGGGVPAEGAFTEDFQGLRAEVETISKELELLDRELCQLLLEGLEGVLRDQLALRALEEALEQGQSLGPVEPLDGPAGAVLECLVLSSGMLVPELAIPVVYLLGALTMLSETQHKLLAEALESQTLLGPLELVGSLLEQSAPWQERSTMSLPPGLLGNSWGEGAPAWVLLDECGLELGEDTPHVCWEPQAQGRMCALYASLALLSGLSQEPH", "modifications": "photocleavable linker"}, "B2": {"name": "SEQ ID NO: 40: reversible optogenetic gasdermin variant, modified gasdermin protein of the invention (protein)", "chain": "MGSAFERVVRRVVQELDHGGEFIPVTSLQSSTGFQPYCLVVRKPSSSWFWKPRYKCVNLSIKDILEPDAAEPDVQRGRSFHFYDAMDGQIQGSVELAAPGQAKIAGGAAVSDSSSTSMNVYSLSVDPNTWQTLLHERHLRQPEHKVLQQLRSRGDNVYVVTEVLQTQKEVEVTRTHKREGSGRFSLPGATCLQGEGQGHLSQKKTVTIPSGSTLAFRVAQLVIDSDLDVLLFPDKKQRTFQPPATGHKRSTSEGAWPQLPSGLSMMRCLHNGGGGMLATTLERIEKNFVITDPRLPDNPIIFASDSFLQLTEYSREEILGRNCRFLQGPETDRATVRKIRDAIDNQTEVTVQLINYTKSGKKFWNVFHLQPMRDYKGDVQYFIGVQLDGTERLHGAAEREAVCLIKKTAFQIAEAANDENYFGGGGVPAEGAFTEDFQGLRAEVETISKELELLDRELCQLLLEGLEGVLRDQLALRALEEALEQGQSLGPVEPLDGPAGAVLECLVLSSGMLVPELAIPVVYLLGALTMLSETQHKLLAEALESQTLLGPLELVGSLLEQSAPWQERSTMSLPPGLLGNSWGEGAPAWVLLDECGLELGEDTPHVCWEPQAQGRMCALYASLALLSGLSQEPH"}}, "key": {"full length human GSDMD": {"test_system": "T1, full length human GSDMD", "T1 sequence": "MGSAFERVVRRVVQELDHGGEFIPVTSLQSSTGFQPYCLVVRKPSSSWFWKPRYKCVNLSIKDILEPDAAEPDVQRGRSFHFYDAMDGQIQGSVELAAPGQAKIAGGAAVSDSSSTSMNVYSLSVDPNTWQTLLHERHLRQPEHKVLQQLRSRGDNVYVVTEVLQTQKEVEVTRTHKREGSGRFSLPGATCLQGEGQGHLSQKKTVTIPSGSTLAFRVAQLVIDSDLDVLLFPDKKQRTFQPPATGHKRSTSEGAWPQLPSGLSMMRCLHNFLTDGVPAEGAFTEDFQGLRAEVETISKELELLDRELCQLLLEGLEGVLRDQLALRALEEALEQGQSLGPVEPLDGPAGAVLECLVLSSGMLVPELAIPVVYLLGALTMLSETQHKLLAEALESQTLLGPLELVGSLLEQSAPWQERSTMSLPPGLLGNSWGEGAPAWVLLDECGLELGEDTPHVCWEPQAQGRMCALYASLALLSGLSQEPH"}, "Hela cells [1]": {"test_system": "Hela cells", "assay": "Modulating molecular transport of a cell by light activation of PhoDer (GFP efflux, phalloidin influx, antibody delivery)", "type": "cell-based", "description": "Using the PhoDer protein, it was determined whether a large molecule, i.e., an impermeable dye, fluorescent protein or an IgG antibody, could be transported into or out of a living cell via light-inducible activation of the PhoDer construct.\nGFP Efflux. Cells expressing GFP were transfected with the PhoDer protein and illuminated intermittently for 1 hour. Over time the gasdermin pore grew larger and GFP fluorescence was captured on a fluorescence microscope using a 40× objective.\nPhalloidin Influx. Phalloidin is a cell impermeable dye used in the labeling of F-actin. Cells were transfected with the PhoDer protein and contacted with phalloidin in the cell medium. The cells were subsequently illuminated and permeation of the phalloidin was monitored. […] As such, control gasdermin pore formation was capable of mediating cargo delivery in the absence of cell death.\nAntibody Delivery. Hela cells expressing PhoDer were placed in medium containing a fluorescently tagged anti-tubulin monoclonal IgG antibody (˜150 kDa, ˜14 nm in size). Before exposure to light, antibody fluorescence was evident in the medium. […] Super-resolution imaging of the cells was carried out using STORM (Stochastic Optical Reconstruction Microscopy). […] Advantageously, the cells remained intact and alive thereby allowing for analysis of cytoskeletal tubulin and nuclear tubulin. […] Given that cytoskeletal and nuclear tubulin have distinct functions apart from their structural roles in forming microtubules, delivery of the anti-tubulin antibody via the present invention allows for further subcellular analysis of tubulin in living cells."}, "Hela cells [2]": {"test_system": "Hela cells", "assay": "Optogenetic activation of PhoDer, membrane-targeted jRCaMP1b calcium flare imaging and fluctuation analysis", "type": "cell-based", "description": "Cloning. Cloning and subcloning were performed using the DH5a strain of E. coli. All mammalian constructs were cloned into the pcDNA3.0 vector with a modified multiple cloning site. Plasmids were generated as follows. Gasdermin D gene was obtained from Addgene. A diffusible optogenetic GSDMD, referred to herein as “PhoDer” and set forth in SEQ ID NO: 33, was constructed according to the reported domains structure by ligating three fragments into the pcDNA3.0 vector in one reaction via Gibson Assembly (New England BioLabs). For each fragment, PCR was specifically designed to create appropriate complementation. The jRCaMP1b gene, encoding a sensitive red protein calcium indicator, was obtained from Addgene. Membrane targeted calcium indicator jRCaMP1b was constructed by ligating a PCR fragment of the calcium indicator into the restriction enzyme sites BamHI and EcoRI in a modified pcDNA3.0 vector carrying a 5′ fragment encoding the N-terminal Lyn kinase localization sequence.\n(§1) Cell Culture. HeLa and RAW264.7 cells were maintained in Dulbecco's Modified Eagle Medium (DMEM) medium supplemented with 10% fetal bovine serum (FBS) and 1% penicillin and streptomycin. Cells were transfected at 50%-70% confluency using LIPOFECTAMINE® 2000 transfection reagent and incubated for 24 hours before imaging. Cells were never serum-starved. To examine endogenous inflammatory activation, RAW264.7 cells were treated with 100 ng/μL lipopolysaccharide (LPS, Invivogen) at the beginning of each experiment. Pretreatment to bias membrane composition by phosphatidylinositol 4,5-bisphosphate (PIP2) modifying enzymes was performed by incubating Hela cells in Hanks' Balanced Salt Solution (HBSS) buffer with inhibitors at 37° C. for 10 minutes to prior imaging at the following concentrations: for phosphoinositide 3-kinase (PI3K), cells were treated 10 μM wortmannin (Tocris); and for phospholipase C (PLC), cells were treated with 10 μM U73122 (Tocris). Cells were removed from the incubator and allowed to come to thermal equilibrium before being imaged in HBSS buffer at room temperature.\nFluorescence Imaging, Optogenetic Activation, and Post-Processing. All epifluorescence imaging was performed on a customized Nikon Ti2-E microscope equipped with individual control over excitation (EX) and emission (EM) filters, a fast LED light source (Lumencor) with fluid-cooled EMCCD (Andor), motorized stage, and examined under a 40× or 100× oil immersion objective under live focus tracking. For RFP, excitation (EX) and emission (EM) filter combinations (maxima/bandwidth in nm) are indicated. Cells were imaged at 12-15 second intervals. Emission intensities of individual cells were background-subtracted before normalization to zero time point, when optogenetic activation began. In the optical setup, optogenetic activation of PhoDer was performed using an EX filter at 440/20 nm for 20-30 ms across whole fields of view. This replicated the progression of endogenous activation of GSDMD observed in LPS-stimulated RAW264.7 cells. […] Where applicable, inhibitors were treated at the indicated concentration for 15 minutes prior to imaging.\nFluctuation Analysis and Quantification. To automate the objective isolation and quantitation of calcium flares, a post-processing algorithm was developed based on principles and normalization scheme detailed in work on photochromic stochastic optical fluctuation imaging (pcSOFI) (Dedecker et al. (2012) Proc. Natl. Acad. Sci. USA 109: 10909-10914). Briefly, fluctuation caused by the flares generate high autocorrelation signals in time-averaged series and yield high contrast at locales of the greatest ion flux. To truly reflect the local flux change, it is then normalized to remove dependence on the number of biosensors reporting at the given location using a scheme detailed previously (Mo et al. (2017) Nat. Methods 14 (4): 427-434). […]"}, "[3]": {"test_system": "RAW264.7 and mouse bone marrow-derived macrophages (BMDM)", "assay": "Optogenetic activation of PhoDer in transiently transfected macrophages, calcium response", "type": "cell-based", "conditions": "transiently transfected RAW264.7 and mouse BMDM", "description": "as §1\nFluorescence Imaging, Optogenetic Activation, and Post-Processing. […]"}, "Hela cells [4]": {"test_system": "Hela cells", "assay": "Reversible optogenetics, cyclic activation", "type": "cell-based", "description": "Reversible Optogenetics. HeLa cells expressing a modified gasdermin protein of the invention (SEQ ID NO: 40) were subjected to cyclic activation. Whereas gasdermin lacking a photoactivatable linker has no ability to reverse and will kill the cell typically in 30 minutes or less, activation of reversible optogenetic gasdermin allow cells to stay alive for 2 hours or longer. Furthermore, upon closer examination, the cyclic activation pattern can clearly be detected in the response of these cells via autocorrelation function (FIG. 13). The “imprinting” of this cyclic pattern into the cellular response can only be possible if the optogenetic gasdermin protein is reversible."}}, "note": "“Also recorded” adds a separate entry of the source.", "data": [{"molecule": "caspase-1", "values": [{"measurement": "micro-current recordings in a POPE/POPC planar lipid bilayer", "setting": "full length human GSDMD", "value": "upon the addition of activated GSDMD (mixture with caspase-1 to cleave the C-terminal autoinhibition domain), minute current fluctuations were detected"}]}, {"molecule": "B1", "values": [{"measurement": "time cells observed intact and adherent after antibody delivery", "setting": "Hela cells [1]", "value": "at least 24 hours"}, {"measurement": "delivery of fluorescently tagged anti-tubulin monoclonal IgG antibody", "setting": "Hela cells [1]; Hela cells, about 5 minute blue-light activation", "value": "the fluorescent antibody was delivered into the interior of the cell"}, {"measurement": "cell lysis after phalloidin delivery (calcium imaging)", "setting": "Hela cells [1]; blue-light activation", "value": "did not lyse"}, {"measurement": "phalloidin influx, F-actin labeling", "setting": "Hela cells [1]; blue-light activation, phalloidin in cell medium", "value": "allowed phalloidin to permeate and bind F-actin; also recorded: delivers actin labels into living cells"}, {"measurement": "GFP efflux", "setting": "Hela cells [1]; cells expressing GFP, illuminated intermittently for 1 hour", "value": "GFP left the cell"}, {"measurement": "average circularity (minor/major radii ratio) of the flares", "setting": "Hela cells [2]", "value": 0.75}, {"measurement": "pores that persisted after the mean open time and reopened", "setting": "Hela cells [2]", "value": "~57", "unit": "%"}, {"measurement": "calcium response upon optogenetic activation", "setting": "Hela cells [2]; Hela cells expressing PhoDer, membrane-targeted jRCaMP1b", "value": "caused spontaneous calcium flares at sporadic locations on the plasma membrane"}, {"measurement": "time in which calcium flares maximized", "setting": "Hela cells [2]; average, n=21 pores", "value": 0.35, "unit": "min"}, {"measurement": "cooperative coefficient of pore closing", "setting": "Hela cells [2]; mean of n=21, R^2=0.996", "value": 0.73}, {"measurement": "average time pores were open", "setting": "Hela cells [2]; n=21 pores", "value": 1.55, "unit": "min"}, {"measurement": "mean diameter reached by calcium flares", "setting": "Hela cells [2]; n=21 pores", "value": "~10", "unit": "μm"}, {"measurement": "calcium response upon optogenetic activation", "setting": "[3]", "value": "initiated clearly localized transient calcium flares"}]}, {"molecule": "B2", "values": [{"measurement": "time cells stay alive under activation", "setting": "Hela cells [4]; HeLa cells, cyclic activation", "value": "≥ 2", "unit": "h"}, {"measurement": "reversibility (autocorrelation function of cyclic activation)", "setting": "Hela cells [4]; activations every 20 cycles", "value": "achieved"}]}]}
